Source: paper PMC7954794 (2021)

B1: S. cerevisiae Abp1 (full length; SH3 domain 535-592 mutated) / Hua2 (parent complex)
chain 1: MALEPIDYTTHSREIDAEYLKIVRGSDPDTTWLIISPNAKKEYEPESTGSSFHDFLQLFDETKVQYGLARVSPPGSDVEKIIIIGWCPDSAPLKTRASFAANFAAVANNLFKGYHVQVTARDEDDLDENELLMKISNAAGARYSIQTSSKQQGKASTPPVKKSFTPSKSPAPVSKKEPVKTPSPAPAAKISSRVNDNNDDDDWNEPELKERDFDQAPLKPNQSSYKPIGKIDLQKVIAEEKAKEDPRLVQKPTAAGSKIDPSSDIANLKNESKLKRDSEFNSFLGTTKPPSMTESSLKNDDDKVIKGFRNEKSPAQLWAERKAKQNSGNAETKAEAPKPEVPEDEPEGEPDVKDLKSKFEGLAASEKEEEEMENKFAPPPKKSEPTIISPKPFSKPQEPVKAEEAEQPKTDYKKIGNPLPGMHIEADNEEEPEENDDDWDDDEDEAAQPPLPSRNVASGAPVQKEEPEQEEIAPSLPSRNSIPAPKQEEAPEQAPEEEIEEEAEEAAPQLPSRSSAAPPPPPRRATPEKKPKENPWATAEYDYDAAEDNELTFVENDKIINIEFVDDDWWLGELEKDGSKGLFPSNYVSLGN
chain 2: MQQTKFGKMYLDHDSVVEYSEDEIVEADRITLGYKKRLSMIENQMRHLLEDFSLDVQQIEPILADLQKYYDAFLQLLQKRNKSLQCKRSTHQPVPSPMNSQTSTNAKVNLSGKLMKFQLNSVQKFDEENILRILQNKIEFEHYFQIDKGKKQKVLLLAVYQCLNGPTRLHKVLNIEGIIHNNSIRTILGKQVSSSKWTVFLYDVKLVLLAHRQDVPNLETSKMIVRYGDLFPCALYFKDHTAY

Variants of: B1
Experiment: DHFR protein-fragment complementation in yeast (Abp1-DHFR F[1,2] x partner-DHFR F[3]), deep mutational scanning, second methotrexate selection vs reference; S. cerevisiae, DHFR-PCA selection in liquid with methotrexate at 30 C, two 72 h selections (the score uses the second); reference = the pre-selection culture

| Variant | screen value |
| --- | --- |
| chain 1 N556D | 0.175 DMS score: mean over two replicates of log2(f_test/f_ref + 0.5)/ln 2, minus the synonymous-codon median (not a log2 … |
| chain 1 T552A | -0.173 DMS score: mean over two replicates of log2(f_test/f_ref + 0.5)/ln 2, minus the synonymous-codon median (not a log2 … |
| chain 1 N549R | -1.02 DMS score: mean over two replicates of log2(f_test/f_ref + 0.5)/ln 2, minus the synonymous-codon median (not a log2 … |
| chain 1 N549Y | -1.27 DMS score: mean over two replicates of log2(f_test/f_ref + 0.5)/ln 2, minus the synonymous-codon median (not a log2 … |
| chain 1 N549H | 0.106 DMS score: mean over two replicates of log2(f_test/f_ref + 0.5)/ln 2, minus the synonymous-codon median (not a log2 … |
| chain 1 N549A | 2.13 DMS score: mean over two replicates of log2(f_test/f_ref + 0.5)/ln 2, minus the synonymous-codon median (not a log2 … |
| chain 1 N549G | 1.33 DMS score: mean over two replicates of log2(f_test/f_ref + 0.5)/ln 2, minus the synonymous-codon median (not a log2 … |
| chain 1 Y587V | -1.17 DMS score: mean over two replicates of log2(f_test/f_ref + 0.5)/ln 2, minus the synonymous-codon median (not a log2 … |
| chain 1 Y587R | -2.81 DMS score: mean over two replicates of log2(f_test/f_ref + 0.5)/ln 2, minus the synonymous-codon median (not a log2 … |
| chain 1 L551M | -0.642 DMS score: mean over two replicates of log2(f_test/f_ref + 0.5)/ln 2, minus the synonymous-codon median (not a log2 … |
| chain 1 E573C | 0.625 DMS score: mean over two replicates of log2(f_test/f_ref + 0.5)/ln 2, minus the synonymous-codon median (not a log2 … |
| chain 1 E573S | -0.47 DMS score: mean over two replicates of log2(f_test/f_ref + 0.5)/ln 2, minus the synonymous-codon median (not a log2 … |
| chain 1 I562V | 0.21 DMS score: mean over two replicates of log2(f_test/f_ref + 0.5)/ln 2, minus the synonymous-codon median (not a log2 … |
| chain 1 E540C | -1.63 DMS score: mean over two replicates of log2(f_test/f_ref + 0.5)/ln 2, minus the synonymous-codon median (not a log2 … |
| chain 1 E540V | -2.31 DMS score: mean over two replicates of log2(f_test/f_ref + 0.5)/ln 2, minus the synonymous-codon median (not a log2 … |
| chain 1 E540L | -2.53 DMS score: mean over two replicates of log2(f_test/f_ref + 0.5)/ln 2, minus the synonymous-codon median (not a log2 … |
| chain 1 L571Q | -0.179 DMS score: mean over two replicates of log2(f_test/f_ref + 0.5)/ln 2, minus the synonymous-codon median (not a log2 … |
| chain 1 L571D | -0.576 DMS score: mean over two replicates of log2(f_test/f_ref + 0.5)/ln 2, minus the synonymous-codon median (not a log2 … |
| chain 1 L571C | -0.177 DMS score: mean over two replicates of log2(f_test/f_ref + 0.5)/ln 2, minus the synonymous-codon median (not a log2 … |
| chain 1 L571R | -1.06 DMS score: mean over two replicates of log2(f_test/f_ref + 0.5)/ln 2, minus the synonymous-codon median (not a log2 … |
| chain 1 L571W | -0.19 DMS score: mean over two replicates of log2(f_test/f_ref + 0.5)/ln 2, minus the synonymous-codon median (not a log2 … |
| chain 1 L574K | 0.584 DMS score: mean over two replicates of log2(f_test/f_ref + 0.5)/ln 2, minus the synonymous-codon median (not a log2 … |
| chain 1 L574V | -1.03 DMS score: mean over two replicates of log2(f_test/f_ref + 0.5)/ln 2, minus the synonymous-codon median (not a log2 … |
| chain 1 L574M | -0.568 DMS score: mean over two replicates of log2(f_test/f_ref + 0.5)/ln 2, minus the synonymous-codon median (not a log2 … |
| chain 1 N586D | -1.73 DMS score: mean over two replicates of log2(f_test/f_ref + 0.5)/ln 2, minus the synonymous-codon median (not a log2 … |

| Variant | screen value |
| --- | --- |
| chain 1 K580R | 0.457 DMS score: mean over two replicates of log2(f_test/f_ref + 0.5)/ln 2, minus the synonymous-codon median (not a log2 … |
| chain 1 K580L | -0.907 DMS score: mean over two replicates of log2(f_test/f_ref + 0.5)/ln 2, minus the synonymous-codon median (not a log2 … |
| chain 1 K580A | -0.331 DMS score: mean over two replicates of log2(f_test/f_ref + 0.5)/ln 2, minus the synonymous-codon median (not a log2 … |
| chain 1 K580H | -0.129 DMS score: mean over two replicates of log2(f_test/f_ref + 0.5)/ln 2, minus the synonymous-codon median (not a log2 … |
| chain 1 K580V | 0.0627 DMS score: mean over two replicates of log2(f_test/f_ref + 0.5)/ln 2, minus the synonymous-codon median (not a log2 … |
| chain 1 K580M | -0.619 DMS score: mean over two replicates of log2(f_test/f_ref + 0.5)/ln 2, minus the synonymous-codon median (not a log2 … |
| chain 1 K580T | 0.165 DMS score: mean over two replicates of log2(f_test/f_ref + 0.5)/ln 2, minus the synonymous-codon median (not a log2 … |
| chain 1 D544L | 0.763 DMS score: mean over two replicates of log2(f_test/f_ref + 0.5)/ln 2, minus the synonymous-codon median (not a log2 … |
| chain 1 D544G | -0.178 DMS score: mean over two replicates of log2(f_test/f_ref + 0.5)/ln 2, minus the synonymous-codon median (not a log2 … |
| chain 1 D544A | 0.497 DMS score: mean over two replicates of log2(f_test/f_ref + 0.5)/ln 2, minus the synonymous-codon median (not a log2 … |
| chain 1 V554K | 1.28 DMS score: mean over two replicates of log2(f_test/f_ref + 0.5)/ln 2, minus the synonymous-codon median (not a log2 … |
| chain 1 V554Y | 0.89 DMS score: mean over two replicates of log2(f_test/f_ref + 0.5)/ln 2, minus the synonymous-codon median (not a log2 … |
| chain 1 V554R | 0.925 DMS score: mean over two replicates of log2(f_test/f_ref + 0.5)/ln 2, minus the synonymous-codon median (not a log2 … |
| chain 1 V554A | 0.779 DMS score: mean over two replicates of log2(f_test/f_ref + 0.5)/ln 2, minus the synonymous-codon median (not a log2 … |
| chain 1 V554I | -0.0296 DMS score: mean over two replicates of log2(f_test/f_ref + 0.5)/ln 2, minus the synonymous-codon median (not a log2 … |
| chain 1 V554L | -0.408 DMS score: mean over two replicates of log2(f_test/f_ref + 0.5)/ln 2, minus the synonymous-codon median (not a log2 … |
| chain 1 V554T | 0.502 DMS score: mean over two replicates of log2(f_test/f_ref + 0.5)/ln 2, minus the synonymous-codon median (not a log2 … |
| chain 1 V554S | 0.912 DMS score: mean over two replicates of log2(f_test/f_ref + 0.5)/ln 2, minus the synonymous-codon median (not a log2 … |
| chain 1 E563V | -0.477 DMS score: mean over two replicates of log2(f_test/f_ref + 0.5)/ln 2, minus the synonymous-codon median (not a log2 … |
| chain 1 E563T | -1.2 DMS score: mean over two replicates of log2(f_test/f_ref + 0.5)/ln 2, minus the synonymous-codon median (not a log2 … |
| chain 1 E563A | -1.08 DMS score: mean over two replicates of log2(f_test/f_ref + 0.5)/ln 2, minus the synonymous-codon median (not a log2 … |
| chain 1 E563D | 0.0054 DMS score: mean over two replicates of log2(f_test/f_ref + 0.5)/ln 2, minus the synonymous-codon median (not a log2 … |
| chain 1 S579Q | 0.0179 DMS score: mean over two replicates of log2(f_test/f_ref + 0.5)/ln 2, minus the synonymous-codon median (not a log2 … |
| chain 1 S579R | 0.286 DMS score: mean over two replicates of log2(f_test/f_ref + 0.5)/ln 2, minus the synonymous-codon median (not a log2 … |
| chain 1 T538S | -0.596 DMS score: mean over two replicates of log2(f_test/f_ref + 0.5)/ln 2, minus the synonymous-codon median (not a log2 … |

| Variant | screen value |
| --- | --- |
| chain 1 T538M | 0.283 DMS score: mean over two replicates of log2(f_test/f_ref + 0.5)/ln 2, minus the synonymous-codon median (not a log2 … |
| chain 1 T538Q | -0.259 DMS score: mean over two replicates of log2(f_test/f_ref + 0.5)/ln 2, minus the synonymous-codon median (not a log2 … |
| chain 1 W569F | 0.62 DMS score: mean over two replicates of log2(f_test/f_ref + 0.5)/ln 2, minus the synonymous-codon median (not a log2 … |
| chain 1 G578R | -0.535 DMS score: mean over two replicates of log2(f_test/f_ref + 0.5)/ln 2, minus the synonymous-codon median (not a log2 … |
| chain 1 G578Q | -0.153 DMS score: mean over two replicates of log2(f_test/f_ref + 0.5)/ln 2, minus the synonymous-codon median (not a log2 … |
| chain 1 E555N | -0.276 DMS score: mean over two replicates of log2(f_test/f_ref + 0.5)/ln 2, minus the synonymous-codon median (not a log2 … |
| chain 1 E555H | -0.509 DMS score: mean over two replicates of log2(f_test/f_ref + 0.5)/ln 2, minus the synonymous-codon median (not a log2 … |
| chain 1 E555R | 0.193 DMS score: mean over two replicates of log2(f_test/f_ref + 0.5)/ln 2, minus the synonymous-codon median (not a log2 … |
| chain 1 E555P | -0.507 DMS score: mean over two replicates of log2(f_test/f_ref + 0.5)/ln 2, minus the synonymous-codon median (not a log2 … |
| chain 1 E555Q | 0.0961 DMS score: mean over two replicates of log2(f_test/f_ref + 0.5)/ln 2, minus the synonymous-codon median (not a log2 … |
| chain 1 E555I | 0.585 DMS score: mean over two replicates of log2(f_test/f_ref + 0.5)/ln 2, minus the synonymous-codon median (not a log2 … |
| chain 1 Y541E | -1.48 DMS score: mean over two replicates of log2(f_test/f_ref + 0.5)/ln 2, minus the synonymous-codon median (not a log2 … |
| chain 1 Y541H | -1.01 DMS score: mean over two replicates of log2(f_test/f_ref + 0.5)/ln 2, minus the synonymous-codon median (not a log2 … |
| chain 1 Y541N | -1.91 DMS score: mean over two replicates of log2(f_test/f_ref + 0.5)/ln 2, minus the synonymous-codon median (not a log2 … |
| chain 1 L582Y | 0.369 DMS score: mean over two replicates of log2(f_test/f_ref + 0.5)/ln 2, minus the synonymous-codon median (not a log2 … |
| chain 1 L582W | 0.141 DMS score: mean over two replicates of log2(f_test/f_ref + 0.5)/ln 2, minus the synonymous-codon median (not a log2 … |
| chain 1 P535T | 0.611 DMS score: mean over two replicates of log2(f_test/f_ref + 0.5)/ln 2, minus the synonymous-codon median (not a log2 … |
| chain 1 P535W | 0.493 DMS score: mean over two replicates of log2(f_test/f_ref + 0.5)/ln 2, minus the synonymous-codon median (not a log2 … |
| chain 1 P535I | 1.56 DMS score: mean over two replicates of log2(f_test/f_ref + 0.5)/ln 2, minus the synonymous-codon median (not a log2 … |
| chain 1 P535H | -0.124 DMS score: mean over two replicates of log2(f_test/f_ref + 0.5)/ln 2, minus the synonymous-codon median (not a log2 … |
| chain 1 P535A | 1.23 DMS score: mean over two replicates of log2(f_test/f_ref + 0.5)/ln 2, minus the synonymous-codon median (not a log2 … |
| chain 1 P535Q | 1.11 DMS score: mean over two replicates of log2(f_test/f_ref + 0.5)/ln 2, minus the synonymous-codon median (not a log2 … |
| chain 1 P535R | 0.0703 DMS score: mean over two replicates of log2(f_test/f_ref + 0.5)/ln 2, minus the synonymous-codon median (not a log2 … |
| chain 1 P535M | 1.02 DMS score: mean over two replicates of log2(f_test/f_ref + 0.5)/ln 2, minus the synonymous-codon median (not a log2 … |
| chain 1 N561K | -0.913 DMS score: mean over two replicates of log2(f_test/f_ref + 0.5)/ln 2, minus the synonymous-codon median (not a log2 … |
